Reference: paper PMC4692385, “Identification of Thyroid Hormones and Functional Characterization of Thyroid Hormone Receptor in the Pacific Oyster Crassostrea gigas Provide Insight into Evolution of the Thyroid Hormone System”

B1: DR0 (dsDNA)
DNA 1: CCGTAAGGTCAAGGTCACTCG
DNA 2: CGAGTGACCTTGACCTTACGG
B2: DR1 (dsDNA)
DNA 1: CCGTAAGGTCACAGGTCACTCG
DNA 2: CGAGTGACCTGTGACCTTACGG
B3: DR2 (dsDNA)
DNA 1: CCGTAAGGTCACAAGGTCACTCG
DNA 2: CGAGTGACCTTGTGACCTTACGG
B4: DR3 (dsDNA)
DNA 1: CCGTAAGGTCACAGAGGTCACTCG
DNA 2: CGAGTGACCTCTGTGACCTTACGG
B5: DR4 (dsDNA)
DNA 1: CCGTAAGGTCACAGGAGGTCACTCG
DNA 2: CGAGTGACCTCCTGTGACCTTACGG
B6: DR5 (dsDNA)
DNA 1: CCGTAAGGTCACCAGGAGGTCACTCG
DNA 2: CGAGTGACCTCCTGGTGACCTTACGG
B7: CgDR5 (dsDNA)
DNA 1: GTCCGTGATCACGGGTAGGTCAAACTG
DNA 2: CAGTTTGACCTACCCGTGATCACGGAC

Legend:
[1] = target: rCgTR (Crassostrea gigas, UniProt A0A0F6V015 1-479); assay: EMSA; no ligand; LightShift Chemiluminescent EMSA kit (Pierce), manufacturer's instructions; buffer, salt, pH and temperature not stated; 100-fold cold probe competition; anti-His supershift; conditions: protein: recombinant, tags: pET30a, label: biotin, blunt
[2] = target: rCgTR1-240 (Crassostrea gigas, UniProt A0A0F6V015 1-240); assay: EMSA; no ligand; homodimer and monomer bands; LightShift Chemiluminescent EMSA kit (Pierce), manufacturer's instructions; buffer, salt, pH and temperature not stated; 100-fold cold probe competition; anti-His supershift; conditions: protein: recombinant, tags: pET30a, label: biotin, blunt
rCgTR1-240, sequence (A0A0F6V015 entry or part of it): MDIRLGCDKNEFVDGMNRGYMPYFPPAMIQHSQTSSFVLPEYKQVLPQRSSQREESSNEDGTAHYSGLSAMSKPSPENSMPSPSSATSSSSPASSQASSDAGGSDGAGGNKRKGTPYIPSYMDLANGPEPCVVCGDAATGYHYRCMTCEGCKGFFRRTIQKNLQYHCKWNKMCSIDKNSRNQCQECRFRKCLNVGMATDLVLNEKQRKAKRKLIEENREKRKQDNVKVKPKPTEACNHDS

rCgTR, sequence (A0A0F6V015 entry or part of it): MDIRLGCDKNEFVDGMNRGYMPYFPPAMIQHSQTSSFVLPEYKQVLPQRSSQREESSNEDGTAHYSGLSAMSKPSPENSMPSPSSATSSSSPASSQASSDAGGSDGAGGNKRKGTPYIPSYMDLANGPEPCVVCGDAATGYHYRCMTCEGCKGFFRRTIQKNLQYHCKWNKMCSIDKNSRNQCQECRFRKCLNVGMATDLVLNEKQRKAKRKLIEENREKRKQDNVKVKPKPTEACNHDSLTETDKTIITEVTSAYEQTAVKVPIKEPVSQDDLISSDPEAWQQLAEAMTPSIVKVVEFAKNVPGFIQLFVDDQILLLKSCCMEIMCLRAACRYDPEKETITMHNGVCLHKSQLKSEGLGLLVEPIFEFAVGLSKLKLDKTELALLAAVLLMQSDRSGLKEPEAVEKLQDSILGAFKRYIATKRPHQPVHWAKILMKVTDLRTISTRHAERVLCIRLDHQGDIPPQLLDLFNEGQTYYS

| Binder | binding result [1] | binding result [2] |
| --- | --- | --- |
| B1 | binds |  |
| B2 | binds |  |
| B3 | binds | binds |
| B4 | binds |  |
| B5 | binds |  |
| B6 | binds |  |
| B7 | binds |  |
